The text below walks through data of patent publication US7101843B2, “Glucagon-like peptide-1 analogs” (Eli Lilly and Company, priority 2001, dated 2006).

In one data set the target is GLP-1 receptor (Homo sapiens, UniProt P43220). The data set can be described thus: GLP-1 receptor activation in vitro. The class given is cell-based. Conditions: Val^8-GLP-1(7-37)OH = 1.0, several values in a cell are repeat determinations. The text has this:
“Insulinotropic activity” refers to the ability to stimulate insulin secretion in response to elevated glucose levels, thereby causing glucose uptake by cells and decreased plasma glucose levels. […] The entire teachings of these references are incorporated herein by reference.
The entire teachings of these references are incorporated herein by reference.

For data set [1], the system named is plasma insulin and plasma glucose. The experiment in a line: Intravenous glucose tolerance test (IVGTT) in rats. The class given is in vivo, wistar male rats. Conditions: plasma insulin after injection (figures). As for the experimental part: FIG. 1 graphs plasma insulin and plasma glucose concentrations obtained at various time points after injection of increasing concentrations of Val^8-GLP-1(7–37)OH in rats.
FIG. 2 graphs plasma insulin concentrations obtained at various time points after injection of increasing concentrations of Val^8-Glu^22-Val^25-Ile^33-GLP-1 (7–37)OH in rats.
A double cannulation procedure was performed on fasting wistar male rats to facilitate injection of solutions and withdrawal of blood. Rats were injected through the jugular cannula with a bolus of 10% glucose solution followed by a solution containing a specific amount of a GLP-1 compound. Rats were injected with 0.01, 0.03, 0.1, 0.3, 1, and 10 μg/kg of GLP-1 compound. Blood was collected through the carotid cannula 2, 4, 6, 10, and 30 minutes following the injection of GLP-1 compound and analyzed. Plasma insulin and plasma glucose levels were measured in each sample. Average insulin and glucose levels are illustrated in FIGS. 1, 2, and 3.

Data set [2] is described as follows: GLP aggregation assay (turbidity at 350 nm, time to onset of aggregation). The class given is physicochemical. The following applies: for aggregation time: at 30° C., stirred solution, pH 7.4. As for the experimental part:
GLP peptides of this invention were analyzed with respect to their potential to aggregate in solution. In general, peptides in solution were stirred at elevated temperature in a suitable buffer while recording turbidity at 350 nm as a function of time. Time to the onset of aggregation was measured to quantify the potential of a given GLP molecule to aggregate under these stressed conditions.
A GLP-1 compound was first dissolved under alkaline conditions (pH 10.5) for 30 minutes to dissolve any pre-aggregated material. The solution was then adjusted to pH 7.4 and filtered. Specifically, 4 mg of a lyophilized GLP-1 compound was dissolved in 3 ml of 10 mM phosphate/10 mM citrate. The pH was adjusted to 10.0–10.5 and held for 30 minutes. The solution was adjusted with HCl to pH 7.4 and filtered through a suitable filter, for example a Millex GV syringe filter (Millipore Corporation, Bedford, Mass.). […] Every five minutes the turbidity of the solution was measured at 350 nm on an AVIV Model 14DS UV-VIS spectrophotometer (Lakewood, N.J.). For 30 seconds prior to and during the measurement the solution was stirred using a magnetic stir bar from Starna Cells, Inc. (Atascadero, Calif.). An increase in OD at 350 nm indicates aggregation of the GLP-peptide. The time to aggregation was approximated by the intersection of linear fits to the pre-growth and growth phase according to method of Drake (Arvinte T, Cudd A, and Drake A F. (1993) J. Bio. Chem. 268, 6415–6422).

“And” between values parts separate entries of the source, which are not always exact repeats. Equal values may be shown once.

GLP-1 receptor, sequence (P43220 24-463, species assumed): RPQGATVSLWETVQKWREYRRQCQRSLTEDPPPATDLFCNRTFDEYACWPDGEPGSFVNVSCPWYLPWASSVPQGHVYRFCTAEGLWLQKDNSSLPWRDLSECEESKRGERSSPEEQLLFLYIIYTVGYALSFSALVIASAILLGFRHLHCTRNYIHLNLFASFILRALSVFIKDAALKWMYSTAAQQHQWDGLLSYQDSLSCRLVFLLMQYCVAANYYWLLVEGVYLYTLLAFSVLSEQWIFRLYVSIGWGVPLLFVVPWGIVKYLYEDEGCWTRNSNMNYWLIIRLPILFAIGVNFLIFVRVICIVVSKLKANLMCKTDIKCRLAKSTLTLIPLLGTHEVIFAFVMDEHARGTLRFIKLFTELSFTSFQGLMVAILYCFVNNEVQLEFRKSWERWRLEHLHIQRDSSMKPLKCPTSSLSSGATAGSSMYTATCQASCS

“Val^8-Glu^22-Val^25-GLP-1(7-37)OH (HVEGTFTSDVSSYLEEQAVKEFIAWLVKGRG) [GLP-1 analog]”: the “GLP-1 receptor activation relative to Val^8-GLP-1(7-37)OH” value in the data set with GLP-1 receptor is 4.7 and 2.9.

As for “Val^8-Glu^22-Ile^33-GLP-1(7-37)OH (HVEGTFTSDVSSYLEEQAAKEFIAWLIKGRG) [GLP-1 analog]”, the “GLP-1 receptor activation relative to Val^8-GLP-1(7-37)OH” value with GLP-1 receptor was 4.7 and 3.8 and 3.4.

With “Val^8-Tyr^18-Glu^22-GLP-1(7-37)OH (HVEGTFTSDVSYYLEEQAAKEFIAWLVKGRG) [GLP-1 analog]”, the “GLP-1 receptor activation relative to Val^8-GLP-1(7-37)OH” value with GLP-1 receptor was 5.1 and 5.9.

Consider “Val^8-Glu^22-Val^25-Ile^33-GLP-1(7-37)OH (HVEGTFTSDVSSYLEEQAVKEFIAWLIKGRG) [GLP-1 analog]”, for which the “GLP-1 receptor activation relative to Val^8-GLP-1(7-37)OH” value in the data set with GLP-1 receptor is 4.9 and 5.8 and 6.7. Besides, the “in vivo potency compared to Val^8-GLP-1(7–37)OH” value in data set [1] is “higher in vivo potency”.

For the substance “Val^8-Tyr^16-Glu^22-GLP-1(7-37)OH (HVEGTFTSDYSSYLEEQAAKEFIAWLVKGRG) [GLP-1 analog]”, in the data set with GLP-1 receptor, the “GLP-1 receptor activation relative to Val^8-GLP-1(7-37)OH” value is 3.6 and 3.8 and 4.9 and 4.6.

As to “Val^8-His^37-GLP-1(7-37)OH (HVEGTFTSDVSSYLEGQAAKEFIAWLVKGRH) [GLP-1 analog]”, in data set [2], the aggregation time result is “greater than 40 hours” and the “propensity to aggregate in solution compared to Val^8-GLP-1(7–37)OH” value (“propensity … compared to Val^8-GLP-1(7–37)OH” below) is on record as “markedly decreased propensity to aggregate”.

Take Val^8-Glu^22-GLP-1(7–37)OH: in data set [2], the aggregation time result was “approximately 72 hours” and the “propensity … compared to Val^8-GLP-1(7–37)OH” value is recorded as “markedly decreased propensity to aggregate”.

With “Val^8-Glu^30-GLP-1(7-37)OH (HVEGTFTSDVSSYLEGQAAKEFIEWLVKGRG) [GLP-1 analog]”, in data set [2], the aggregation time entry was “approximately 30 hours” and the “propensity … compared to Val^8-GLP-1(7–37)OH” value was “markedly decreased propensity to aggregate”.
